Test [1] deals with GST-tagged version of human FcγRIIIA (human) (UniProt P08637). Kind of test: AlphaLISA vs biotin-huIgG, supernatant, round 1. Background: Alpha assays give light when donor and acceptor beads are brought close together.
Test [2] has the same target. The experiment in a line: AlphaLISA vs biotin-huIgG, supernatant, round 2.
Test [3] shares this target. The experiment in a line: AlphaLISA vs biotin-huIgG, supernatant, round 3.

GST-tagged version of human FcγRIIIA (human), sequence (P08637 17-208 limits assumed): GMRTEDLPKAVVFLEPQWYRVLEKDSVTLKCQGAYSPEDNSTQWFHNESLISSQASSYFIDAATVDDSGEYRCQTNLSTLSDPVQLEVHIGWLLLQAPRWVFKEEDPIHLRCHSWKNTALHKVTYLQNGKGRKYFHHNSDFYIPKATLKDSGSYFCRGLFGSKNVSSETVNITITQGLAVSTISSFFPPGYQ

On to “scFv-Fc/Fc, K290G in scFv-Fc (from UniProt P0DOX5 218-449; P0DOX5 218-449) (Fc fusion)”, for which the % inhibition (commonly the relative decrease from the control value, in per cent) in test [1] stood at 31.1%; in test [2], 33.1%. For the same substance, the Alpha signal in test [1] turned out to be 52400; in test [2], 53800; in test [3] it was 55700.

Turning to “scFv-Fc/Fc, K290Q in scFv-Fc (Fc fusion)”, the % inhibition in test [1] is 50.8%; in test [2], 54.4%; in test [3] it was 48.8%. Further, the Alpha signal in test [1] is 37400; in test [2], 36700; in test [3] it was 40300.

For the substance “scFv-Fc/Fc, K290S in scFv-Fc (from UniProt P0DOX5 218-449; P0DOX5 218-449) (Fc fusion)”, the % inhibition in test [1] was found to be 24.8%. Besides, the Alpha signal in test [1] is 57100; in test [2] it was 55900; in test [3] it was 54600.

As for “scFv-Fc/Fc, K290W in scFv-Fc (Fc fusion)”, the % inhibition was found to be 29.1% in test [1], 34.6% in test [2] and 24.2% in test [3]. For the same substance, the results for the Alpha signal in test [1], in test [2] and in test [3] were 53900, 52600 and 59500, respectively.

In the case of “scFv-Fc/Fc, K290Y in scFv-Fc (Fc fusion)”, the % inhibition in test [1] is 87.9%; in test [2], 90.2%; in test [3] it was 87%. The Alpha signal in test [1] worked out at 9170; in test [2], 7890; in test [3], 10200.

As for “scFv-Fc/Fc, K334A in scFv-Fc (Fc fusion)”, the % inhibition came to 32% in test [1], 31.9% in test [2] and 28.2% in test [3]. Moreover, the Alpha signal in test [1] was found to be 51700; in test [2], 54800; in test [3], 56500.

On to “scFv-Fc/Fc, K334L in dummy Fc (Fc fusion)”, for which the figures for the % inhibition in test [1], in test [2] and in test [3] were 64.9%, 70.9% and 68.1%, respectively. For the same substance, the Alpha signal in test [1] was found to be 26700; in test [2] it was 23400; in test [3], 25100.

Take “scFv-Fc/Fc, K334M in scFv-Fc (Fc fusion)”: the Alpha signal was determined as 22300 in test [1], 19800 in test [2] and 24400 in test [3]. In addition, in test [2], the % inhibition is 75.4%.

As for “scFv-Fc/Fc, K334V + D413N in dummy Fc (Fc fusion)”, the % inhibition in test [1] was determined as 73.4%; in test [2] it was 73.4%; in test [3] it was 67.6%. Besides, the Alpha signal in test [1] came out at 20200; in test [2], 21400; in test [3], 25400.

“scFv-Fc/Fc, K334V in dummy Fc (Fc fusion)”: the % inhibition turned out to be 64.4% in test [1], 66.5% in test [2] and 61.6% in test [3]. In addition, the figures for the Alpha signal in test [1], in test [2] and in test [3] were 27100, 26900 and 30200, respectively.

In the case of “scFv-Fc/Fc, L234Y in scFv-Fc (Fc fusion)”, the values for the % inhibition in test [1], in test [2] and in test [3] were 27.5%, 42.9% and 35.7%, respectively. The Alpha signal in test [1] is 55100; in test [2] it was 45900; in test [3] it was 50500.

In the case of “scFv-Fc/Fc, L235S in scFv-Fc (Fc fusion)”, the figures for the % inhibition in test [1], in test [2] and in test [3] were 89.8%, 92.2% and 91.1%, respectively. For the same substance, the Alpha signal in test [1] is 7790; in test [2], 6260; in test [3], 7020.

With “scFv-Fc/Fc, L309C in dummy Fc (Fc fusion)”, the % inhibition came out at 21.4% in test [1], 30.8% in test [2] and 21.4% in test [3]. Also, the Alpha signal in test [1] is 59700; in test [2] it was 55600; in test [3], 61800.

Consider “scFv-Fc/Fc, L309E in scFv-Fc (Fc fusion)”, for which the values for the % inhibition in test [1], in test [2] and in test [3] were 67%, 73.7% and 67.6%, respectively. The substance further returned an Alpha signal in test [2] of 21100.

For “scFv-Fc/Fc, L309K in scFv-Fc (Fc fusion)”, the results for the % inhibition in test [1], in test [2] and in test [3] were 69.2%, 76.5% and 65.4%, respectively. Moreover, the results for the Alpha signal in test [1], in test [2] and in test [3] were 23400, 18900 and 27200, respectively.

As for “scFv-Fc/Fc, L309S in scFv-Fc (Fc fusion)”, the % inhibition was 20.4% in test [1], 23.5% in test [2] and 19.1% in test [3]. The Alpha signal in test [1] came to 60500; in test [2], 61500; in test [3] it was 63500.

As to “scFv-Fc/Fc, M252D in dummy Fc (Fc fusion)”, the % inhibition amounted to 20.4% in test [1], 27.8% in test [2] and 23.3% in test [3]. For the same substance, the Alpha signal is 60500 in test [1], 58100 in test [2] and 60300 in test [3].

Regarding “scFv-Fc/Fc, N315A in scFv-Fc (Fc fusion)”, the results for the % inhibition in test [1] and in test [3] were 68.7% and 63.6%, respectively. Also, the Alpha signal in test [1] amounted to 23800; in test [2], 19700; in test [3], 28600.

As for “scFv-Fc/Fc, N315S in scFv-Fc (Fc fusion)”, the % inhibition in test [1] turned out to be 65.8%; in test [2], 75.8%; in test [3], 63.4%. Besides, the Alpha signal in test [1] amounted to 26000; in test [2], 19500; in test [3] it was 28800.

Turning to “scFv-Fc/Fc, Q311M in dummy Fc (Fc fusion)”, the % inhibition in test [1] stood at 82.7%; in test [2], 86.2%; in test [3], 87.5%. The values for the Alpha signal in test [1], in test [2] and in test [3] were 13100, 11100 and 9800, respectively.

Regarding “scFv-Fc/Fc, R255N in dummy Fc (Fc fusion)”, the values for the % inhibition in test [1], in test [2] and in test [3] were 37.4%, 39.6% and 43.3%, respectively. The Alpha signal came to 47500 in test [1], 48500 in test [2] and 44500 in test [3].

For the substance “scFv-Fc/Fc, R255S in dummy Fc (Fc fusion)”, the % inhibition is 21.9% in test [1], 38% in test [2] and 22.3% in test [3]. For the same substance, the Alpha signal in test [1] amounted to 59300; in test [2] it was 49800; in test [3], 61000.

Regarding “scFv-Fc/Fc, S239D in dummy Fc (Fc fusion)”, the % inhibition in test [1] is 91.9%; in test [2], 92.3%; in test [3], 87.4%. In addition, the figures for the Alpha signal in test [1], in test [2] and in test [3] were 6120, 6160 and 9870, respectively.

With “scFv-Fc/Fc, S239D in scFv-Fc (Fc fusion)”, the Alpha signal in test [1] was determined as 24300; in test [2], 16900; in test [3], 21400. In test [2], this substance gave a % inhibition of 79%.

For “scFv-Fc/Fc, S239E + K340N in dummy Fc (Fc fusion)”, the % inhibition in test [1] was 84.9%; in test [2], 85.4%; in test [3] it was 66.7%. For the same substance, the Alpha signal in test [1] came to 11500; in test [2], 11800; in test [3], 26100.

For “scFv-Fc/Fc, S239E in dummy Fc (Fc fusion)”, the Alpha signal in test [1] was 32500; in test [2], 34800; in test [3], 33700.

As for “scFv-Fc/Fc, S239N in scFv-Fc (Fc fusion)”, the % inhibition in test [1] was found to be 58%; in test [2] it was 67.5%; in test [3] it was 68.8%. The Alpha signal in test [1] was 31900; in test [2], 26100; in test [3], 24500.

Take “scFv-Fc/Fc, S298A in scFv-Fc (Fc fusion)”: the % inhibition worked out at 76.5% in test [1], 68.5% in test [2] and 65% in test [3]. The Alpha signal in test [1] came out at 17900; in test [2], 25300; in test [3], 27500.

As to “scFv-Fc/Fc, S298C in scFv-Fc (Fc fusion)”, the results for the % inhibition in test [1], in test [2] and in test [3] were 84%, 87.1% and 82.9%, respectively. In addition, the Alpha signal was determined as 12200 in test [1], 10400 in test [2] and 13400 in test [3].

“scFv-Fc/Fc, T256Q in scFv-Fc (from UniProt P0DOX5 218-449; P0DOX5 218-449) (Fc fusion)”: the % inhibition in test [1] was 65.1%; in test [2], 76.3%; in test [3], 73.5%. For the same substance, the Alpha signal was determined as 26500 in test [1], 19100 in test [2] and 20800 in test [3].

Regarding “scFv-Fc/Fc, T256V in dummy Fc (Fc fusion)”, the % inhibition was 59.9% in test [1], 60.5% in test [2] and 63.3% in test [3]. In addition, the Alpha signal amounted to 30500 in test [1], 31800 in test [2] and 28800 in test [3].

In the case of “scFv-Fc/Fc, T307E in scFv-Fc (Fc fusion)”, the results for the % inhibition in test [1], in test [2] and in test [3] were 71.5%, 76.4% and 67.2%, respectively. In addition, the Alpha signal is 21700 in test [1], 18900 in test [2] and 25800 in test [3].

Turning to “scFv-Fc/Fc, T307P in dummy Fc (Fc fusion)”, the % inhibition in test [1] was found to be 75%; in test [2], 75.1%; in test [3], 82.1%. The Alpha signal in test [1] stood at 19000; in test [2], 20000; in test [3] it was 14100.

Values taken from patent US20140112926A1.
